Assay results taken from US20240034757A1 (OXFORD UNIVERSITY INNOVATION, published 2024).
Changes are numbered by the printed parent chain.

T1: P467_RHIPU (Rhipicephalus pulchellus, UniProt L7M8Z8 22-127)
T1 sequence: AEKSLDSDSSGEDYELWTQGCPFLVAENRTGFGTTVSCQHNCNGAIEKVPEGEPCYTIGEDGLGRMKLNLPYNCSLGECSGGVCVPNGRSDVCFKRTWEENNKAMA

T2: P546_AMBCA (Amblyomma cajennense, UniProt A0A023FBW7 22-118)
T2 sequence: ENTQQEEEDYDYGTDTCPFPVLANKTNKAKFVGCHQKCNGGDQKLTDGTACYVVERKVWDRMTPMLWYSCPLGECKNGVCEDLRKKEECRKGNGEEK

T3: P1180_AMBTR (Amblyomma triste, UniProt A0A023G6B6 26-116)
T3 sequence: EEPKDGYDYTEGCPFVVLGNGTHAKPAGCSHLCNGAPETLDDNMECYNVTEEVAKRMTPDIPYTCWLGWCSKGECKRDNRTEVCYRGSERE

T4: P1181_AMBMA (Amblyomma maculatum, UniProt G3MIX6 26-115)
T4 sequence: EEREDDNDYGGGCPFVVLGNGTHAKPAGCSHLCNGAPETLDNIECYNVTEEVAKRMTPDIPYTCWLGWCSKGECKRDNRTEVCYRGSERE

T5: P1182_AMBMA (Amblyomma maculatum, UniProt G3MJ83 27-115)
T5 sequence: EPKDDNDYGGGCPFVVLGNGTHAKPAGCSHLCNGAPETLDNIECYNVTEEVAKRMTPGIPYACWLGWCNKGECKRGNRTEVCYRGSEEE

T6: P1243_AMBAM (Amblyomma americanum, UniProt A0A0C9S461 26-123)
T6 sequence: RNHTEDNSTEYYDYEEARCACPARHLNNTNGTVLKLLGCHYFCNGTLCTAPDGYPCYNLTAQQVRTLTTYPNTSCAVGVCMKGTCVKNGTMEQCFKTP

T7: P974_AMBCA (Amblyomma cajennense, UniProt A0A023FDY8 22-118)
T7 sequence: T2 sequence with E8Q, S69E, E88D

T8: P985_AMBPA (Amblyomma parvum, UniProt A0A023FT45 25-132)
T8 sequence: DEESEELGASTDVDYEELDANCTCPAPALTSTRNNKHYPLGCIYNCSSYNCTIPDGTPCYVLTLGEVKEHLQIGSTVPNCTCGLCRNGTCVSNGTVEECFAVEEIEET

T9: P991_AMBCA (Amblyomma cajennense, UniProt A0A023FFD0 29-136)
T9 sequence: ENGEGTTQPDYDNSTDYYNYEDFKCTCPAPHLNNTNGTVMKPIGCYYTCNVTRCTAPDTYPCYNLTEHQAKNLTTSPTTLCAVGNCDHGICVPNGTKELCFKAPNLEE

T10: CXCL9_HUMAN (human, UniProt Q07325 23-125)
T10 sequence: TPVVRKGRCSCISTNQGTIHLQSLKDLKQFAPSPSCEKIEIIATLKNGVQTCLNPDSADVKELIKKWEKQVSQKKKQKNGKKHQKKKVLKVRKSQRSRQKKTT

T11: CXCL10_HUMAN (human, UniProt P02778 22-98)
T11 sequence: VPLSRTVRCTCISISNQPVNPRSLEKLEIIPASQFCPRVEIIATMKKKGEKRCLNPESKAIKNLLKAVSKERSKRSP

T12: CXCL11_HUMAN (human, UniProt O14625 22-94)
T12 sequence: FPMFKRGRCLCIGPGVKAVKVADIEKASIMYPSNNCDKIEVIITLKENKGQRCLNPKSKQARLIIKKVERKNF

T13: CXCL13_HUMAN (human, UniProt O43927 23-109)
T13 sequence: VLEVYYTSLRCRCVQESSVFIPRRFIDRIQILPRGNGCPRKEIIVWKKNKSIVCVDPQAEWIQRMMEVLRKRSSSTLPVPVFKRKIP

T14: CXCL14_HUMAN (human, UniProt O95715 35-111)
T14 sequence: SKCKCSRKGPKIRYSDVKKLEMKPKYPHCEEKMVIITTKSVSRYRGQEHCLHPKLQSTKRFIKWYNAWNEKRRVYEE

T15: CXCL7_HUMAN (human, UniProt P02775 59-128)
T15 sequence: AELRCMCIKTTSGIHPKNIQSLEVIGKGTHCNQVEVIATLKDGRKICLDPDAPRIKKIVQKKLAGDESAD

T16: CXCL8_HUMAN (human, UniProt P10145 28-99)
T16 sequence: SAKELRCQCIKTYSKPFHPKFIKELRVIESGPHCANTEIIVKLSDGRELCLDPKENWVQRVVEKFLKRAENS

T17: CXCL4_HUMAN (human, UniProt P02776 32-101)
T17 sequence: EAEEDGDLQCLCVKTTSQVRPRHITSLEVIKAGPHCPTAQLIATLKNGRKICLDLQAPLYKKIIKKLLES

T18: CXCL1_HUMAN (human, UniProt P09341 35-107)
T18 sequence: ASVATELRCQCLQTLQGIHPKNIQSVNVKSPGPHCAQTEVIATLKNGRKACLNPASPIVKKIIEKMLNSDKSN

B1: CCL5_HUMAN (ligand)
chain: SPYSSDTTPCCFAYIARPLPRAHIKEYFYTSGKCSNPAVVFVTRKNRQVCANPEKKWVREYINSLEMS
B2: CCL1_HUMAN (ligand)
chain: KSMQVPFSRCCFSFAEQEIPLRAILCYRNTSSICSNEGLIFKLKRGKEACALDTVGWVQRHRKMLRHCPSKRK
B3: CCL18_HUMAN (ligand)
chain: AQVGTNKELCCLVYTSWQIPQKFIVDYSETSPQCPKPGVILLTKRGRQICADPNKKWVQKYISDLKLNA
B4: CCL17_HUMAN (ligand)
chain: ARGTNVGRECCLEYFKGAIPLRKLKTWYQTSEDCSRDAIVFVTVQGRAICSDPNNKRVKNAVKYLQSLERS
B5: CCL27_HUMAN (ligand)
chain: FLLPPSTACCTQLYRKPLSDKLLRKVIQVELQEADGDCHLQAFVLHLAQRSICIHPQNPSLSQWFEHQERKLHGTLPKLNFGMLRKMG
B6: CCL19_HUMAN (ligand)
chain: GTNDAEDCCLSVTQKPIPGYIVRNFHYLLIKDGCRVPAVVFTTLRGRQLCAPPDQPWVERIIQRLQRTSAKMKRRSS
B7: CCL24_HUMAN (ligand)
chain: VVIPSPCCMFFVSKRIPENRVVSYQLSSRSTCLKAGVIFTTKKGQQFCGDPKQEWVQRYMKNLDAKQKKASPRARAVA
B8: CCL22_HUMAN (ligand)
chain: GPYGANMEDSVCCRDYVRYRLPLRVVKHFYWTSDSCPRPGVVLLTFRDKEICADPRVPWVKMILNKLSQ
B9: P1166_IXORI (other)
chain: GPETKEDKKSDVYELFTVEYCGTNCTLLTNGRWTACTGKKGTCRCYHESGEKVGLCLSTEYTDFSEYPNPKSSEIDAAAPLPRETH
B10: P1096_IXORI (other)
chain: HTTVTGSVEGKPNNPNEDIEVSYCRMNCTVENGVSSACSGDCVCVHRDNEPNGICVEITYFGDFGDPSQDPSIDEAAPRESVSKRRSNGES
B11: P1095_IXORI (other)
chain: HSPVAGSEVQKLTSDPNDDIDVSYCGMNCTVVNGKSDECSENCKCLHEGDDPKGICVAITYFGDWGDPNDDPKINEATPQTQIFEKKRK
B12: P1132_IXORI (other)
chain: LSDEDELFSVEYCGTNCTKQDTGSWTTCSGNCTCYHEDGKKVGLCLSTEYTDFTKFPKPTSEEIANARPLPKREKTLN
B13: P1124_IXORI (other)
chain: DSKGTSDSQDSTKSIKVDFCETNCTKTDGGWTGCTGDCICVSVGDSIEGRCMDFG
B14: P458_IXORI (other)
chain: GSKQPGAAGSSSDSVEAVFCPTNCTKGTNGAWSGCSDDCICVHVGENTEGSCMKFSGDYDYPTPEA
B15: P1134_IXORI (other)
chain: NEEVFTVEYCGMNCTQKSDGTWTECSGKNKDCRCYHESDAREGLCLSTEYTDFSQFETPSNSDLEAATPRPRKTLYPVRNPHGPKTRGLGYDKRILRDRVKFLI
B16: P1100_IXORI (other)
chain: GSKGSSASQSSDNSVVAKFCDTNCTINEGGKWTECKGGCFCVHVGNETVGRCMKLDGDYDYPSPKPEE

These binders were tested against T1, P467_RHIPU (assay: BLI).
With B1 the Kd was 7.67 nM.
Work on B2 yielded a Kd of 53.4 nM.
Binder B3 has a Kd of 16.6 nM.

What follows are binders tested against T2, P546_AMBCA (assay: BLI).
Binder B2 has a Kd of 160 nM.
With B4 the Kd was 70 nM.
For B3, the Kd was 16 nM.

These binders were tested against T3, P1180_AMBTR (assay: BLI).
With B3 the Kd was 5.8 nM.

These binders were tested against T4, P1181_AMBMA (assay: BLI).
Work on B3 yielded a Kd of 10 nM.

What follows are binders tested against T5, P1182_AMBMA (assay: BLI).
With B3 the Kd was 33 nM.

What follows are binders tested against T6, P1243_AMBAM (assay: BLI).
B1 showed a Kd of 1.74 nM.
For B2, the Kd was 21.3 nM.
B5 gave a Kd of 15.1 nM.
B4 gave a Kd of 0.734 nM.
For B6, the Kd was 0.592 nM.
B3 showed a Kd of 0.00501 nM.

Each binder was assayed against T7, P974_AMBCA (assay: BLI).
In the case of B2, the Kd is reported as 70.5 nM.
In the case of B4, the Kd is reported as 70.6 nM.
B3 gave a Kd of 17 nM.

What follows are binders tested against T8, P985_AMBPA (assay: BLI).
B1 showed a Kd of 3.5 nM.
B2 showed a Kd of 8.3 nM.
B3 was tested, and the Kd was 430 nM.

Each binder was assayed against T9, P991_AMBCA (assay: BLI).
In the case of B1, the Kd is reported as 1.47 nM.
Binder B4 has a Kd of 7.66 nM.
B6 was tested, and the Kd was 14.4 nM.
In the case of B3, the Kd is reported as 0.209 nM.

Target: T6, P1243_AMBAM
Test: BLI
Remark: another data set of the same source
With B1 the Kd was 1.74 nM.
With B7 the Kd was 7.39 nM.
In the case of B2, the Kd is reported as 21.2 nM.
With B5 the Kd was 15.1 nM.
For B8, the Kd was 22.3 nM.
In the case of B4, the Kd is reported as 0.734 nM.
Work on B6 yielded a Kd of 0.592 nM.
B3 was tested, and the Kd was 0.005 nM.

What follows are binders tested against T10, CXCL9_HUMAN (assay: BLI).
B9: no binding (tested: 300 nM).
B10: no binding (tested: 300 nM).
B11: no binding (tested: 300 nM).
B12: no binding (tested: 300 nM).

What follows are binders tested against T11, CXCL10_HUMAN (assay: BLI).
B13: no binding (tested: 300 nM).
B14: no binding (tested: 300 nM).

Each binder was assayed against T12, CXCL11_HUMAN (assay: BLI).
B13: no binding (tested: 300 nM).
B14: no binding (tested: 300 nM).

The binders below were run against CXCL12_HUMAN (human, UniProt P48061 22-89) (assay: BLI).
Chain of CXCL12_HUMAN (P48061 22-89 limits assumed): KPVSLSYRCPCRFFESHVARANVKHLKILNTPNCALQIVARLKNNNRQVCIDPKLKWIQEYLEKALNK
In the case of B13, the Kd is reported as 212 nM.
B9: no binding (tested: 300 nM).
B15: no binding (tested: 300 nM).
B10: no binding (tested: 300 nM).
B16: no binding (tested: 300 nM).
B14: no binding (tested: 300 nM).
B12: no binding (tested: 300 nM).

Each binder was assayed against T13, CXCL13_HUMAN (assay: BLI).
B9: no binding (tested: 300 nM).
B12: no binding (tested: 300 nM).

Each binder was assayed against T14, CXCL14_HUMAN (assay: BLI).
B13: no binding (tested: 300 nM).
B16: no binding (tested: 300 nM).
B14: no binding (tested: 300 nM).

Each binder was assayed against T15, CXCL7_HUMAN (assay: BLI [Cont.]).
B13: no binding (tested: 300 nM).
B16: no binding (tested: 300 nM).
B14: no binding (tested: 300 nM).

Each binder was assayed against T16, CXCL8_HUMAN (assay: BLI [Cont.]).
B13: no binding (tested: 300 nM).
B16: no binding (tested: 300 nM).
B14: no binding (tested: 300 nM).

Each binder was assayed against T17, CXCL4_HUMAN (assay: BLI [Cont.]).
B13: no binding (tested: 300 nM).
B16: no binding (tested: 300 nM).
B14: no binding (tested: 300 nM).

What follows are binders tested against T18, CXCL1_HUMAN (assay: yeast surface display FACS re-test; also: test concentration or dose not given here).
With B9 the “% cells over threshold fluorescence” value was 63%.
B12 was tested, and the “% cells over threshold fluorescence” value was 68%.
